Here are results for 41 variants from the RNAGym collection of RNA variant scans (doi:10.7554/elife.90254).

B1: OR4K15 (parent)
chain: GUUAACGGUCAUAGGCCAUGGAAACUAGGAGCACCAUUUCGCUGCCAGUGAAGAAAUGAACAAAGAAAAUCUGGGCCAGGCAGGCAUCAAAAGAAAUAGUCUUGCGCUCAACCAGAAAGUCUGUAAUCAUUUUAAGGGUA

Variants of B1 are the subject of the data set. Put plainly: self-cleavage, relative activity (ratio to wild type); higher = more cleavage; in vitro, sequencing; the parent is a self-cleaving ribozyme.
In the case of GUUAACGGUCAUAGGCCAUGGAAACUAGGAGCACCAUUUCGCUGCCAGUGAAGAAAUGAACAAGGAAAAUCAGGGCCAGGCAGGCAUCAAAAGAAAUAGUCUUGCGCUCAACCAGAAAGUCUGUAAUCAUUUUAAGGGUA [A64G U72A], the self-cleavage was found to be 0.35.

With GUUAACGGUCAUAGGCCAUGGAAACUAGGAGCACCAUUUCGCUGCCAGUGAAGAAAUGAACAAGGAAAAUCCGGGCCAGGCAGGCAUCAAAAGAAAUAGUCUUGCGCUCAACCAGAAAGUCUGUAAUCAUUUUAAGGGUA [A64G U72C], the self-cleavage came to 0.27.

In the case of GUUAACGGUCAUAGGCCAUGGAAACUAGGAGCACCAUUUCGCUGCCAGUGAAGAAAUGAACAAGGAAAAUCUGGGCUAGGCAGGCAUCAAAAGAAAUAGUCUUGCGCUCAACCAGAAAGUCUGUAAUCAUUUUAAGGGUA [A64G C77U], the self-cleavage turned out to be 1.43.

On to GUUAACGGUCAUAGGCCAUGGAAACUAGGAGCACCAUUUCGCUGCCAGUGAAGAAAUGAACAAUGAAAAUCUGGGCCAGGCAGGCAUCAAAAGAAAUAGUCUUGCGCUCAACCAGAAAGUCUAUAAUCAUUUUAAGGGUA [A64U G123A], for which the self-cleavage was 2.31.

As to GUUAACGGUCAUAGGCCAUGGAAACUAGGAGCACCAUUUCGCUGCCAGUGAAGAAAUGAACAAUGAAAAUCUGGGCCAGGCAGGCAUCUAAAGAAAUAGUCUUGCGCUCAACCAGAAAGUCUGUAAUCAUUUUAAGGGUA [A64U A89U], the self-cleavage was 0.92.

For GUUAACGGUCAUAGGCCAUGGAAACUAGGAGCACCAUUUCGCUGCCAGUGAAGAAAUGAACAAGGAAAAUCUGGGCCAGGCAGGCAUCAAAAGAAAUAGUCUUGCGCUCAACCAGAAAGUCUGUAAUCAUUUUAUGGGUA [A64G A135U], the self-cleavage was 1.28.

Take GUUAACGGUCAUAGGCCAUGGAAACUAGGAGCACCAUUUCGCUGCCAGUGAAGAAAUGAACAAGGAAAAUCUGGGCCAGGCAGGCAUCAAAAGAAAUAGUCUUGCGCUCAACCAGAAAGUCUGUAACCAUUUUAAGGGUA [A64G U127C]: the self-cleavage is 0.86.

In the case of GUUAACGGUCAUAGGCCAUGGAAACUAGGAGCACCAUUUCGCUGCCAGUGAAGAAAUGAACAAGGAAAAUCUGGGCCAGGCAGGCAUCAAAAGAAAUAGUCUUGCACUCAACCAGAAAGUCUGUAAUCAUUUUAAGGGUA [A64G G106A], the self-cleavage amounted to 0.04.

In the case of GUUAACGGUCAUAGGCCAUGGAAACUAGGAGCACCAUUUCGCUGCCAGUGAAGAAAUGAACAAUGAAAAUCUGGGCCAGGCAGGCAGCAAAAGAAAUAGUCUUGCGCUCAACCAGAAAGUCUGUAAUCAUUUUAAGGGUA [A64U U87G], the self-cleavage turned out to be 0.62.

Consider GUUAACGGUCAUAGGCCAUGGAAACUAGGAGCACCAUUUCGCUGCCAGUGAAGAAAUGAACAAUGAAAAUCUGGGCCAGGCAGGCAUCAAAAGAAAUAGUCUUGCGCUCAACCAAAAAGUCUGUAAUCAUUUUAAGGGUA [A64U G115A], for which the self-cleavage came to 0.02.

With GUUAACGGUCAUAGGCCAUGGAAACUAGGAGCACCAUUUCGCUGCCAGUGAAGAAAUGAACAAGGAAAAUCUGGGCCAGGCAGGCAUCAAAAGAAAUAGUCUUGCGCUCAACCAGAAAGUCUGUAAUCAUAUUAAGGGUA [A64G U131A], the self-cleavage was found to be 0.6.

As to GUUAACGGUCAUAGGCCAUGGAAACUAGGAGCACCAUUUCGCUGCCAGUGAAGAAAUGAACAAGGAAAAUCUGUGCCAGGCAGGCAUCAAAAGAAAUAGUCUUGCGCUCAACCAGAAAGUCUGUAAUCAUUUUAAGGGUA [A64G G74U], the self-cleavage was found to be 0.24.

Take GUUAACGGUCAUAGGCCAUGGAAACUAGGAGCACCAUUUCGCUGCCAGUGAAGAAAUGAACAAGGAAAAUCUGAGCCAGGCAGGCAUCAAAAGAAAUAGUCUUGCGCUCAACCAGAAAGUCUGUAAUCAUUUUAAGGGUA [A64G G74A]: the self-cleavage turned out to be 0.36.

In the case of GUUAACGGUCAUAGGCCAUGGAAACUAGGAGCACCAUUUCGCUGCCAGUGAAGAAAUGAACAAUGAAAAUCUGGGCCAGGCAGGCAUCAAAAGAAAUAGUCUUGCGCUCAACCAGAGAGUCUGUAAUCAUUUUAAGGGUA [A64U A117G], the self-cleavage stood at 1.18.

As for GUUAACGGUCAUAGGCCAUGGAAACUAGGAGCACCAUUUCGCUGCCAGUGAAGAAAUGAACAAGGAAAAUCUGGGCCAGGCAGGCAUCAAAAGAAACAGUCUUGCGCUCAACCAGAAAGUCUGUAAUCAUUUUAAGGGUA [A64G U97C], the self-cleavage turned out to be 1.63.

For GUUAACGGUCAUAGGCCAUGGAAACUAGGAGCACCAUUUCGCUGCCAGUGAAGAAAUGAACAAUGAAAAUCUGGGCCAGGCUGGCAUCAAAAGAAAUAGUCUUGCGCUCAACCAGAAAGUCUGUAAUCAUUUUAAGGGUA [A64U A82U], the self-cleavage was determined as 0.19.

Take GUUAACGGUCAUAGGCCAUGGAAACUAGGAGCACCAUUUCGCUGCCAGUGAAGAAAUGAACAAGGAAAAUCUGGGCCAGGCAGGCAUCAAAAGAAAUAGUUUUGCGCUCAACCAGAAAGUCUGUAAUCAUUUUAAGGGUA [A64G C101U]: the self-cleavage was determined as 0.42.

Consider GUUAACGGUCAUAGGCCAUGGAAACUAGGAGCACCAUUUCGCUGCCAGUGAAGAAAUGAACAAUGAAAAUCUGGGCUAGGCAGGCAUCAAAAGAAAUAGUCUUGCGCUCAACCAGAAAGUCUGUAAUCAUUUUAAGGGUA [A64U C77U], for which the self-cleavage is 1.56.

For the variant GUUAACGGUCAUAGGCCAUGGAAACUAGGAGCACCAUUUCGCUGCCAGUGAAGAAAUGAACAAUGAAAAUCUGGGCCAGGCAGGCAUCAAAAGAAAUAGUCUUGCGCUCGACCAGAAAGUCUGUAAUCAUUUUAAGGGUA [A64U A110G], the self-cleavage was found to be 0.11.

On to GUUAACGGUCAUAGGCCAUGGAAACUAGGAGCACCAUUUCGCUGCCAGUGAAGAAAUGAACAAGGAAAAUCUGGGCCAGGCAGGCAUCAAAAGAAAUAGUCUUGCGCUCAACCAGAAAGUCUGCAAUCAUUUUAAGGGUA [A64G U124C], for which the self-cleavage was found to be 1.57.

As to GUUAACGGUCAUAGGCCAUGGAAACUAGGAGCACCAUUUCGCUGCCAGUGAAGAAAUGAACAAUGAAAAUCUGGGCCAGGCAGGCAUCAAAAGAAAUAGUCAUGCGCUCAACCAGAAAGUCUGUAAUCAUUUUAAGGGUA [A64U U102A], the self-cleavage was determined as 1.07.

Consider GUUAACGGUCAUAGGCCAUGGAAACUAGGAGCACCAUUUCGCUGCCAGUGAAGAAAUGAACAAGGAAAAUCUGGGCCAGGCAGGCAUCAAAAGAAAUAGUCUUGCGCUCAACCAGAAAGUCUGUAAUCAUUAUAAGGGUA [A64G U132A], for which the self-cleavage amounted to 1.85.

With GUUAACGGUCAUAGGCCAUGGAAACUAGGAGCACCAUUUCGCUGCCAGUGAAGAAAUGAACAAGGAAAAUCUGGGCCAGGCAGGCAUCAAAAGAAAUAGUCUUGCGCUCAACCAGAAAGUCUGUAAUCAUUCUAAGGGUA [A64G U132C], the self-cleavage came out at 1.53.

On to GUUAACGGUCAUAGGCCAUGGAAACUAGGAGCACCAUUUCGCUGCCAGUGAAGAAAUGAACAAGGAAAACCUGGGCCAGGCAGGCAUCAAAAGAAAUAGUCUUGCGCUCAACCAGAAAGUCUGUAAUCAUUUUAAGGGUA [A64G U70C], for which the self-cleavage came to 0.57.

GUUAACGGUCAUAGGCCAUGGAAACUAGGAGCACCAUUUCGCUGCCAGUGAAGAAAUGAACAAGGAAAAUCUGGGCCAGGCAGGCAUCAAAAGAAAUAGUCUUGCGCACAACCAGAAAGUCUGUAAUCAUUUUAAGGGUA [A64G U108A]: the self-cleavage is 0.01.

GUUAACGGUCAUAGGCCAUGGAAACUAGGAGCACCAUUUCGCUGCCAGUGAAGAAAUGAACAAUGAAAAUCUGGGCCAGGCAGGCAUCAAAAGAAAUAGUCUUGCGCUCAACCAGAAAGUCUGUAAUCGUUUUAAGGGUA [A64U A129G]: the self-cleavage came out at 1.34.

On to GUUAACGGUCAUAGGCCAUGGAAACUAGGAGCACCAUUUCGCUGCCAGUGAAGAAAUGAACAAGGAAAAUCUGGGCCAGGCAGGCAUCAAAAGAAAUAGUCUUGCGCUCAACCAGAAAGUCUAUAAUCAUUUUAAGGGUA [A64G G123A], for which the self-cleavage was 1.66.

Regarding GUUAACGGUCAUAGGCCAUGGAAACUAGGAGCACCAUUUCGCUGCCAGUGAAGAAAUGAACAAUGAAAAUCUGGGCCAGGCAGGCAUCAAAAGUAAUAGUCUUGCGCUCAACCAGAAAGUCUGUAAUCAUUUUAAGGGUA [A64U A94U], the self-cleavage worked out at 1.63.

Turning to GUUAACGGUCAUAGGCCAUGGAAACUAGGAGCACCAUUUCGCUGCCAGUGAAGAAAUGAACAAUGAAAAUCUGGGCCAGGCAGGCAUCAAAAGAAAUAGUCUUGCGCUCAACCAGGAAGUCUGUAAUCAUUUUAAGGGUA [A64U A116G], the self-cleavage was 0.21.

On to GUUAACGGUCAUAGGCCAUGGAAACUAGGAGCACCAUUUCGCUGCCAGUGAAGAAAUGAACAAUGAAAAUCUGGGCCAGGCAGGCAUCAAACGAAAUAGUCUUGCGCUCAACCAGAAAGUCUGUAAUCAUUUUAAGGGUA [A64U A92C], for which the self-cleavage turned out to be 1.53.

For GUUAACGGUCAUAGGCCAUGGAAACUAGGAGCACCAUUUCGCUGCCAGUGAAGAAAUGAACAAUGAAAAUCUGGGCCAGGCAGGCAUCAAAAGAAAUAGUCUUGCGCUCAACCAGAAAGUCUGUAAUCAUUUUAAGGGUA [A64U], the self-cleavage was determined as 1.23.

On to GUUAACGGUCAUAGGCCAUGGAAACUAGGAGCACCAUUUCGCUGCCAGUGAAGAAAUGAACAAUGAAAAUCCGGGCCAGGCAGGCAUCAAAAGAAAUAGUCUUGCGCUCAACCAGAAAGUCUGUAAUCAUUUUAAGGGUA [A64U U72C], for which the self-cleavage is 0.34.

As to GUUAACGGUCAUAGGCCAUGGAAACUAGGAGCACCAUUUCGCUGCCAGUGAAGAAAUGAACAAGGAAAAUCUGGGCCAGGCAGGCAUCAAAAGAAAUAGUCUCGCGCUCAACCAGAAAGUCUGUAAUCAUUUUAAGGGUA [A64G U103C], the self-cleavage worked out at 1.2.

With GUUAACGGUCAUAGGCCAUGGAAACUAGGAGCACCAUUUCGCUGCCAGUGAAGAAAUGAACAAGGAAAAUCUGGGCCAGGCAGGCAUCAAAAGAAAUAGUCUUGCGCUCAACCAGAAAGUCUGUAAUCAUUUUAAGAGUA [A64G G137A], the self-cleavage stood at 0.96.

On to GUUAACGGUCAUAGGCCAUGGAAACUAGGAGCACCAUUUCGCUGCCAGUGAAGAAAUGAACAAUGAAAAUCUGGGCCAGGCAGGCAUCAGAAGAAAUAGUCUUGCGCUCAACCAGAAAGUCUGUAAUCAUUUUAAGGGUA [A64U A90G], for which the self-cleavage was 0.32.

On to GUUAACGGUCAUAGGCCAUGGAAACUAGGAGCACCAUUUCGCUGCCAGUGAAGAAAUGAACAAUGAAAAUCUGGGCCAGGCAGGCAUCAAAAGAAAUAGUCUUGCGCUCAACCAGAAAGUCUGUAAUCAUUUUAAGGGUG [A64U A140G], for which the self-cleavage turned out to be 1.39.

On to GUUAACGGUCAUAGGCCAUGGAAACUAGGAGCACCAUUUCGCUGCCAGUGAAGAAAUGAACAAGGAAAAUCUGGUCCAGGCAGGCAUCAAAAGAAAUAGUCUUGCGCUCAACCAGAAAGUCUGUAAUCAUUUUAAGGGUA [A64G G75U], for which the self-cleavage was determined as 0.12.

Turning to GUUAACGGUCAUAGGCCAUGGAAACUAGGAGCACCAUUUCGCUGCCAGUGAAGAAAUGAACAAGGAAAAUCUGGGCCAGGCAGGCAUCAAAAGAAAUAGUCCUGCGCUCAACCAGAAAGUCUGUAAUCAUUUUAAGGGUA [A64G U102C], the self-cleavage amounted to 2.06.

With GUUAACGGUCAUAGGCCAUGGAAACUAGGAGCACCAUUUCGCUGCCAGUGAAGAAAUGAACAAGGAAAAUCUGGGCCAGGCAGGCAUCAAAAGAAAUAGUCUUGCGCUCAACCAGAAAGUCUGUAAUCAUUUUAAGGGUU [A64G A140U], the self-cleavage amounted to 1.37.

Turning to GUUAACGGUCAUAGGCCAUGGAAACUAGGAGCACCAUUUCGCUGCCAGUGAAGAAAUGAACAAGGAAAAUCUGGGCCAGGCAGGCAUCAAAAGAAAUAGUCUUGCGCUCAACCAGAAAGUCUGUAAUCACUUUAAGGGUA [A64G U130C], the self-cleavage is 0.45.

As to GUUAACGGUCAUAGGCCAUGGAAACUAGGAGCACCAUUUCGCUGCCAGUGAAGAAAUGAACAAUGAAAAUCUGGGCCAGGCAGGCAUCAAAAGAAAUAGUCUUGCGCUCAACCAGAAAGUCUGUAGUCAUUUUAAGGGUA [A64U A126G], the self-cleavage is 1.12.
